Laboratory results: patent publication US20240352105A1, “COMPOSITIONS AND METHODS FOR NEUTRALIZING ANTIGENS” (PACAGEN, INC, priority 2023, published 2024)
“And” between values parts separate entries of the source, which are not always exact repeats. Identical values can stand only once.

How the values were obtained:
[1] = molecular target: Can f2-sumo-His (dog (Canis familiaris)) (UniProt O18874); assay: serum ELISA, 1:2K, Alpaca 2 block
[2] = molecular target: T1, recombinant His-tagged Der p2 (dust mite, UniProt P49278 18-146); assay: serum ELISA, 1:2K, Alpaca 2 block
T1 construct: also called Der p2-His; Der p2-HIS; not shown: His tag
T1 sequence (looked up): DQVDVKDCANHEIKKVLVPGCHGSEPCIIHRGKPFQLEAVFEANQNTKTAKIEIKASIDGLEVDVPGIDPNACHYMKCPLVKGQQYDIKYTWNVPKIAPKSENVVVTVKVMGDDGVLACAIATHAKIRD

[3] = molecular target: recombinant His-tagged Can f1 (dog (Canis familiaris)) (UniProt O18873); assay: serum ELISA, 1:2K, Alpaca 2 block
[4] = molecular target: recombinant His-tagged Can f2 (dog (Canis familiaris)) (UniProt O18874); assay: serum ELISA, 1:2K, Alpaca 2 block
[5] = molecular target: recombinant His-tagged Can f1 (dog (Canis familiaris)) (UniProt O18873); assay: serum ELISA, 1:8K, Alpaca 1 block
[6] = molecular target: Can f2-sumo-His (dog (Canis familiaris)) (UniProt O18874); assay: serum ELISA, 1:16K, Alpaca 1 block
[7] = molecular target: T1, recombinant His-tagged Der p2; assay: serum ELISA, 1:16K, Alpaca 1 block
[8] = molecular target: recombinant His-tagged Can f1 (dog (Canis familiaris)) (UniProt O18873); assay: serum ELISA, 1:16K, Alpaca 1 block
[9] = molecular target: recombinant His-tagged Can f2 (dog (Canis familiaris)) (UniProt O18874); assay: serum ELISA, 1:16K, Alpaca 1 block
[10] = molecular target: Can f2-sumo-His (dog (Canis familiaris)) (UniProt O18874); assay: serum ELISA, 1:16K, Alpaca 2 block
[11] = molecular target: T1, recombinant His-tagged Der p2; assay: serum ELISA, 1:16K, Alpaca 2 block
[12] = molecular target: recombinant His-tagged Can f1 (dog (Canis familiaris)) (UniProt O18873); assay: serum ELISA, 1:16K, Alpaca 2 block
[13] = molecular target: recombinant His-tagged Can f2 (dog (Canis familiaris)) (UniProt O18874); assay: serum ELISA, 1:16K, Alpaca 2 block
[14] = molecular target: Can f2-sumo-His (dog (Canis familiaris)) (UniProt O18874); assay: serum ELISA, 1:32k, Alpaca 2 block
[15] = molecular target: T1, recombinant His-tagged Der p2; assay: serum ELISA, 1:32k, Alpaca 2 block
[16] = molecular target: recombinant His-tagged Can f1 (dog (Canis familiaris)) (UniProt O18873); assay: serum ELISA, 1:32k, Alpaca 2 block
[17] = molecular target: recombinant His-tagged Can f2 (dog (Canis familiaris)) (UniProt O18874); assay: serum ELISA, 1:32k, Alpaca 2 block

Sequence of recombinant His-tagged Can f2 (dog (Canis familiaris)) (O18874 19-180 limits assumed): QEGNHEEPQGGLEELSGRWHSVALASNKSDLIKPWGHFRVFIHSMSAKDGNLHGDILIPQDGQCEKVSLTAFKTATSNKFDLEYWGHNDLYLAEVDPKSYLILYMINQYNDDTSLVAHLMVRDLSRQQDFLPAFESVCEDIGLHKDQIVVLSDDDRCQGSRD
Sequence of Can f2-sumo-His (dog (Canis familiaris)) (O18874 19-180): as the sequence (O18874 19-180 limits assumed) above
Sequence of recombinant His-tagged Can f1 (dog (Canis familiaris)) (O18873 19-174 limits assumed): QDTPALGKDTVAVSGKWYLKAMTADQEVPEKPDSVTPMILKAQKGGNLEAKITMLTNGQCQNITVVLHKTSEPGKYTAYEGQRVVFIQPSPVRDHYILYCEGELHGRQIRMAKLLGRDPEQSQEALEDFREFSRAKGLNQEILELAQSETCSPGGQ

Substance: Negative serum taken from naïve alpacas
- OD at 450 nm [1]: 0.119 OD and 0.113 OD
- OD at 450 nm [2]: 0.152 OD and 0.15 OD
- OD at 450 nm [3]: 0.185 OD and 0.179 OD
- OD at 450 nm [4]: 0.143 OD and 0.133 OD
- OD at 450 nm [5]: 0.116 OD and 0.117 OD
- OD at 450 nm [6]: 0.071 OD
- OD at 450 nm [7]: 0.099 OD and 0.093 OD
- OD at 450 nm [8]: 0.101 OD and 0.11 OD
- OD at 450 nm [9]: 0.075 OD and 0.076 OD
- OD at 450 nm [10]: 0.074 OD and 0.081 OD
- OD at 450 nm [11]: 0.091 OD and 0.089 OD
- OD at 450 nm [12]: 0.101 OD and 0.098 OD
- OD at 450 nm [13]: 0.08 OD and 0.075 OD
- OD at 450 nm [14]: 0.071 OD and 0.061 OD
- OD at 450 nm [15]: 0.082 OD
- OD at 450 nm [16]: 0.091 OD and 0.093 OD
- OD at 450 nm [17]: 0.075 OD and 0.068 OD
